PMC10138814

What was measured:
[1] = molecular target: His6-SUMO-LaM1-LaM8 (llama); experiment: BLI; His-SUMO-tandem nanobody loaded on Ni-NTA biosensors; mCherry or DsRed in solution; 20 mM HEPES pH 7.4, 150 mM NaCl, 0.005% Tween-20; association 600 s, dissociation 600 s; 2:1 heterogeneous ligand fit; DsRed concentration calculated as a monomer
[2] = molecular target: His6-SUMO-LaM8-LaM4 (llama); experiment: as above

DsRed, sequence (Q9U6Y8 whole entry): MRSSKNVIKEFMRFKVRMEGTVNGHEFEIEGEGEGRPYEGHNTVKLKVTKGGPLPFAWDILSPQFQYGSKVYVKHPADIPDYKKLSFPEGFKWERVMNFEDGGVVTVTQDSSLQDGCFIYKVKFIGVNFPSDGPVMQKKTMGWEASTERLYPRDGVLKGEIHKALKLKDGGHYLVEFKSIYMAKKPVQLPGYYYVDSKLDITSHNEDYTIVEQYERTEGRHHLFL

Substance | KD2 [1] | KD (site 1 of the 2:1 heterogeneous ligand fit) [1] | kdis1 [1] | kdis2 [1] | kon2 [1] | kon (site 1 of the 2:1 heterogeneous ligand fit) [1] | KD2 [2] | KD (site 1 of the 2:1 heterogeneous ligand fit) [2] | kdis1 [2] | kdis2 [2] | kon2 [2] | kon (site 1 of the 2:1 heterogeneous ligand fit) [2]
mCherry | < 1 pM | 1.87 nM | 0.000552 s⁻¹ | < 1e-07 s⁻¹ | 46700 M⁻¹ s⁻¹ | 296000 M⁻¹ s⁻¹ | 1.29 nM | 1.38 nM | 0.000239 s⁻¹ | 6.51e-05 s⁻¹ | 50600 M⁻¹ s⁻¹ | 173000 M⁻¹ s⁻¹
DsRed (from UniProt Q9U6Y8 1-225) (natural protein) | – | – | – | – | – | – | 4.12 nM | 2.64 nM | 0.000232 s⁻¹ | 8.2e-05 s⁻¹ | 19900 M⁻¹ s⁻¹ | 88100 M⁻¹ s⁻¹
